± gives the uncertainty stated by the source.

This data set can be described thus: amyloid nucleation score (Sup35N fusion, yeast selection) (log enrichment); library NNK3; higher = more nucleation; inactive = no reads after selection. In short, it runs like this:
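Psi-negative yeast expressed Sup35N fused to peptides of 20 random codons. They were induced 24 hours with 100 μM copper sulfate, grown 7 days at 30°C without adenine and uracil, and their plasmid inserts from input and output were Illumina-sequenced. The nucleation score is the DiMSum log enrichment of output over input reads, centred on the mode score of non-aggregating sequences. Sequences with under 100 input reads were excluded.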
On to VGNLGS, for which the amyloid nucleation score entry was “inactive”.
Turning to MRRTSCTVYTGKIRRIMYVV, the amyloid nucleation score result was “inactive”.
For EHNAKEHITLGLTSWPNRLG, the amyloid nucleation score entry is “inactive”.
For SFNCPNAWSVYLL, the amyloid nucleation score entry is “inactive”.
Consider TIFSIDFIIVYT, for which the amyloid nucleation score is 1.81 ± 0.057.
As to VKIFS, the amyloid nucleation score entry was “inactive”.
For the substance IEGEYLVASAWRFLQSKHAH, the amyloid nucleation score result was “inactive”.
As to CFNNKVVNTWRICMVGLSLS, the amyloid nucleation score result is “inactive”.
For MMLDTWVTYPMREKLDAYRV the value was “inactive”; for FFYSYGRLNPKYDRVYISFG, -0.661 ± 0.98; for ANYVYNQTVMCS, “inactive”.
For AIGYLCSALAKVSLFGKWSV, the amyloid nucleation score entry was “inactive”.
Under DWLDLSGVSCH stands -0.11 ± 0.62; under PVMLGYGMGYSATVVKGCCL, “inactive”.
Take GWGPRPSKNVCHIRCDMFFM: the amyloid nucleation score came to 1.59 ± 0.13.
For SHSLS the value was “inactive”; for SSAELV, “inactive”; for LSPPLVSWGGPTVRMGKCSG, “inactive”.
For NKVTLGYMFITSLVRTSS the value was 0.491 ± 0.15; for REGSDHRFMICETFYFE, “inactive”; for KLTVMVMQLASLRLAK, -0.158 ± 0.35.
Under DKMKQKAQKVEDLHMAIGDD stands “inactive”.
Consider NWGLIMVSVEEDTDLGGSGM, for which the amyloid nucleation score was -0.114 ± 0.88.
For the substance RALVFIIQVVFRFPCTAGIL, the amyloid nucleation score entry is “inactive”.
Under DYVPIKFYRYYEILNVCRVV stands “inactive”; under AMHHSNRSKPVSVIRWMWRC, “inactive”; under SLILALFSGISSDF, 0.122 ± 0.37.
Consider IMYLRETGTK, for which the amyloid nucleation score result is “inactive”.
As to NLSTFQIYDR, the amyloid nucleation score result is “inactive”.
For YKFEHVIFWNSFLNIKVEFS the value was 1.56 ± 0.068; for FGIKFVIQVDCRHIMHNCVN, 0.077 ± 0.87; for FLVRRGCP, “inactive”.
For the substance RWPLMMTFSATIVGYTVVWA, the amyloid nucleation score result is “inactive”.
LSYCKRHIRRRLFVG: the amyloid nucleation score is -0.208 ± 0.6.
Take FMTLMVTLYLRLYSRSYGPQ: the amyloid nucleation score result was “inactive”.
For VSCMLLSRDLCLQSFIWMLL the value was “inactive”.
Consider LGVSLKGNYAYWFTLIWSDV, for which the amyloid nucleation score result was “inactive”.
Under HFVTDDNGGICDVDNV stands “inactive”; under DCARFILIT, “inactive”.
LSRCVPNDVGKAYMMKEKRK: the amyloid nucleation score result was “inactive”.
Regarding TQDRYAISIRLVSTQLKLMS, the amyloid nucleation score result is “inactive”.
For FMKSRINIRIALWCF the value was “inactive”; for YYDHGNFRCMSTKRPVWQVF, “inactive”.
For IYKSTFFKVRTSGPGRHFGF the value was 0.186 ± 0.37; for ALCGNHLKCYKYSGAWRAV, “inactive”; for GVADGGMPRNSSWRLSGVVR, “inactive”.
Under YYAATPGSYLAGGRWITLF stands 0.219 ± 0.47.
For the substance CFSLGVCGQAKVNVWNNIYV, the amyloid nucleation score was found to be 2.71 ± 0.054.
For YTCNST the value was “inactive”; for SNVGSDDTFLVLLHSHSRSG, 0.72 ± 0.49.
Under NPVLWVGRAF stands “inactive”; under EGKARGDH, “inactive”; under LCRGYDRLKRPHSVVSGSIC, “inactive”.
Under NWGVVYYISSCNGNSSHLSS stands 1.83 ± 0.097; under FYITFFECD, “inactive”; under FLGDSTNGRRFFSEFRSEWG, 0.964 ± 0.17.
As for CRDSWFWSV, the amyloid nucleation score result is “inactive”.
Under WLLHLIYD stands “inactive”.
With TWTMDSSLWMLWAVQVVEGR, the amyloid nucleation score result was “inactive”.
Under MCNMCR stands “inactive”.
For AAETLTRSWLLRSARLMKDG the value was -0.233 ± 1.4; for RSVVVLT, “inactive”; for FHVSCSSFSKWNHENWHNLK, 0.006 ± 0.56.
In the case of SIRLIIKELDGNDTCIGVSG, the amyloid nucleation score result is “inactive”.
As for SFPWFDTYSLDVSWHISWRS, the amyloid nucleation score result was “inactive”.
Consider SMCMRCLSVSKKKAQKSDEP, for which the amyloid nucleation score entry was “inactive”.
KHVGIVMH: the amyloid nucleation score entry was “inactive”.
In the case of WFDFHA, the amyloid nucleation score stood at 0.9 ± 0.25.
Under VRSQGLHRRVFFIATGIKLG stands “inactive”.
Under CLGMSFLRRMGTMSAYPTIK stands “inactive”.
Turning to EKITFGECWKACSAF, the amyloid nucleation score entry is “inactive”.
Consider NVGITMGCNRTPCLSTWFAV, for which the amyloid nucleation score entry is “inactive”.
Under VWIWWEDSGITCLGYMVLDF stands “inactive”; under VHTYLSAEWLVFPRHFAVYK, “inactive”; under CLTYHSCIFRVHLFTISINV, “inactive”.
Under AMPMATLTVPMWLLILFVTF stands “inactive”; under SDEYTVTFHPSTPGKVSERD, “inactive”.
The substance GGSFKVDNPKVTRAWISFFS displayed an amyloid nucleation score of 0.802 ± 0.13.
NFRVLVVNVKTFLMVVKVMF: the amyloid nucleation score result was “inactive”.
For DQMIEDRNWNGVNDYSYNAC the value was “inactive”; for CWPESISVVYLQYCAGSMSL, “inactive”; for MSYEDTPCH, “inactive”.
YNVRSFLTKVEWTYYFS yielded an amyloid nucleation score of 0.391 ± 0.16.
Under TVFLDIISDVLILGGVRCRR stands 1.26 ± 0.13; under TLFEMYNVTFIMKNGLQES, 1.96 ± 0.062; under SLLYEEPEVLINNSSGSAS, “inactive”.
For the substance VTNQSFDQPESLVEM, the amyloid nucleation score result is “inactive”.
In the case of AHLLETMDTREVFKIR, the amyloid nucleation score entry is “inactive”.
For the substance FLLRYWYKAVDSRHRYSQLI, the amyloid nucleation score entry was “inactive”.
For FRLLLSKMAYFRADMTYDDF the value was “inactive”.
On to DGHMDR, for which the amyloid nucleation score result was “inactive”.
Consider RKAGR, for which the amyloid nucleation score result was “inactive”.
For FSFQQSWVSY the value was “inactive”.
On to FVDLIRLCMCFVRMSQSLRT, for which the amyloid nucleation score result is “inactive”.
Under LMYVS stands “inactive”; under TGILRNFSCFSFWFWVIRIT, 1.46 ± 0.097.
For RSPRFLRELVLGCSNCWFCG the value was “inactive”; for EDLVISNIFGWFGCLGLVYT, “inactive”.
